# Where a chain is given by its changes, count along the chain named. “And” between values parts separate entries of the source, which are not always exact repeats. Equal values may be shown once.
# T1: Human syndecan-1 (CD138) on the cell surface (human, UniProt P18827 23-310)
# T1 construct: Endogenous on H929, KMS-11 and RT112/84 cells or transfected into Expi293 cells; also called human CD138; hCD138
# T1 sequence: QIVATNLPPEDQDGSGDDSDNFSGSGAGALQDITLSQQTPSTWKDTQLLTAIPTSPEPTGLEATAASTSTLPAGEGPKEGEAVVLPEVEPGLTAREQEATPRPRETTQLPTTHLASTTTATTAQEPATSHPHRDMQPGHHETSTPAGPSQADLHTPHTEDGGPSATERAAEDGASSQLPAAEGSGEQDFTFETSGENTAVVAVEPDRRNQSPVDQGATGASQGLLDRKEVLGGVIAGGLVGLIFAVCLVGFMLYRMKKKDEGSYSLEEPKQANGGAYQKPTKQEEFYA
# T2: Human CD138-Fc protein (human, UniProt P18827 23-254)
# T2 construct: also called hCD138-Fc
# T2 sequence: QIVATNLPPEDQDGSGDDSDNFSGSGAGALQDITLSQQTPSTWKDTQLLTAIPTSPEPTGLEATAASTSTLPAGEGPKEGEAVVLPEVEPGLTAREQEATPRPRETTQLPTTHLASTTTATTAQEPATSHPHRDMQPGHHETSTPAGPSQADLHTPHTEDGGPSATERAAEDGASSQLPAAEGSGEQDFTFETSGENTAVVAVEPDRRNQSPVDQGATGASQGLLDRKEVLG
# T3: hCD138 peptide AGEGPKEGEAVVLP (human)
# T3 construct: Portion of the linear CD138 peptide used for immunization; also the peptide in the crystal structure; also called syndecan-1 peptide
# T3 peptide: AGEGPKEGEAVVLP
# T4: Mouse CD138 (ELISA binding assay, data not shown) (mouse, UniProt P18828 23-255, limits assumed)
# T4 construct: Construct used in the ELISA is not described
# T4 sequence: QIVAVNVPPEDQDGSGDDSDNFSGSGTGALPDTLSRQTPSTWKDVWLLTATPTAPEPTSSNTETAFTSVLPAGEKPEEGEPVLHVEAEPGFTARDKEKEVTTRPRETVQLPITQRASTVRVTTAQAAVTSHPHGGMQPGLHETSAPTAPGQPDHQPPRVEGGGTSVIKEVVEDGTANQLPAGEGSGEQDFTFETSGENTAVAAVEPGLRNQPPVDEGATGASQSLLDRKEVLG
# T5: Mouse CD138 His (mouse, UniProt P18828 23-255)
# T5 construct: also called mCD138
# T5 sequence: T4 sequence
# T6: Human CD138 His (human, UniProt P18827 23-254)
# T6 construct: also called hCD138
# T6 sequence: T2 sequence
# T7: hCD138 (ELISA of Table 29) (human, UniProt P18827 23-254, limits assumed)
# T7 construct: also called human CD138
# T7 sequence: T2 sequence
# B1: F6 ckf-rep (antibody, V domains shown)
# VH: QVQLVQSGAEVVKPGASVKLSCKASGYTFTSYYLYWVKKAPGQGLDWIGEIYPRSGGTNINEKFLSRVTLTADTSTSTAYLELSSLTSEDTAVYYCTRSLLYWGQGTTLTVSS
# VL: DVVMTQSPLSLSVTLGQPASISCKSSQSLLASDGKTYLNWLQQRPGQSPRRLIYLVSKLDSGVPNRFSGSGSGTDFTLQISRVEAEDVGLYYCWQGAHFPFTFGSGTKLEIKR
# notes: Humanized F12P16F6 expressed as whole antibody with human constant regions (kappa light chain)
# B2: F6 cks-rep (hF6) (antibody, human IgG1, kappa, V domains shown)
# VH: B1 VH
# VL: B1 VL with S7T, L15P, Q42L, R50K
# notes: Humanized IgG1/kappa antibody; also called hF6 (no Fynomer)
# B3: F6 f1kf-rep (antibody, V domains shown)
# VH: B1 VH with V5Q, L81M, E82D
# VL: B1 VL
# notes: as for B1
# B4: F6 f1ka-rep (antibody, V domains shown)
# VH: B1 VH with V5Q, L81M, E82D
# VL: B1 VL with S7T, L15P, Q42L, R50K, W94M, S105G, L109V
# notes: as for B1
# B5: F6 aks-rep (antibody, V domains shown)
# VH: B1 VH with I60Y, N61A, L65Q, S66G
# VL: B1 VL with S7T, L15P, Q42L, R50K
# notes: as for B1
# B6: F6 f2kf-rep (antibody, V domains shown)
# VH: B1 VH with V5Q, L70I, T74E, A79V, L81M, E82Q, T91S
# VL: B1 VL
# notes: as for B1
# B7: F6 akf-rep (antibody, V domains shown)
# VH: B1 VH with I60Y, N61A, L65Q, S66G
# VL: B1 VL
# notes: as for B1
# B8: F6 f1ks-rep (antibody, V domains shown)
# VH: B1 VH with V5Q, L81M, E82D
# VL: B1 VL with S7T, L15P, Q42L, R50K
# notes: as for B1
# B9: F6 cka-rep (antibody, V domains shown)
# VH: B1 VH
# VL: B1 VL with S7T, L15P, Q42L, R50K, W94M, S105G, L109V
# notes: as for B1
# B10: F13P30A7 (antibody, V domains shown)
# VH: EVQLVESGGGLVQPKGSLKLSCAASGFTFNTYAMNWVRQAPGKGLEWIARIRSKSNNYATYYADSVKDRFTISRDDSQSLLYLQMNNLKTEDTAIFYCVTDYGYVYFDAWGAGTTVTVSS
# VL: NIIMTQSPKSMAMSVGERVTLSCKASENVGNYVSWYQQKPEQSPKLLIYGASYRYTGVPDRFTGSGSGTDFTLTISSVQAEDLADYHCGQSSRYPLTFGAGTKLELKR
# notes: Murine IgG purified from hybridoma supernatant
# B11: F12P7G11 (antibody, V domains shown)
# VH: QVQLQQSGAELARPGASVKLSCKASGYTFSSHWMQWVKQRPGQGLEWIGAIYPGDGDTRFTQKFKGKATLTADKSSNTAYMQLSSLASEDSAVYYCARGIYYDRSRAMDYWGQGTSVTVSS
# VL: QIVLSQSPAILSASPGEKVTMTCRASSSVNYMHWYQQKPGSSPKHWIYATSYLASGVPARFSGSGSGTSYSLTISRVEAEDAATYYCQQWSSDPLTFGAGTKLELKR
# notes: as for B10
# B12: F11AP11E5 (antibody, V domains shown)
# VH: QVQLQQSGAELVKPGASVKLSCKASGYTFTNYYMYWVKQRPGQGLEWIGEINPGNGGTNFNEKFKNKATLTVDKSSSTAYMQLSSLTSEDSAVYYCTTRFAYWGQGTLVIVSA
# VL: DVVMTQTPLSLSVTIGQPASISCKSGQSLLYSNGKTYLTWLQQRPGQAPKLLMYQVSKLDPGIPDRFSGSGSETDFTLKISRVEAEDLGVYYCLQNTYYPHTFGAGTKLELKR
# notes: as for B10
# B13: hF6-HC-G7 (bispecific antibody, human IgG1, kappa)
# heavy: not shown
# light: DVVMTQTPLSLSVTPGQPASISCKSSQSLLASDGKTYLNWLLQRPGQSPKRLIYLVSKLDSGVPNRFSGSGSGTDFTLQISRVEAEDVGLYYCWQGAHFPFTFGSGTKLEIKRTVAAPSVFIFPPSDEQLKSGTASVVCLLNNFYPREAKVQWKVDNALQSGNSQESVTEQDSKDSTYSLSSTLTLSKADYEKHKVYACEVTHQGLSSPVTKSFNRGEC
# notes: IgG1/kappa
# Target: T1, Human syndecan-1 (CD138) on the cell …
# Test: FACS on KMS-11 cells, four parameter fit
# Protocol: (§1) Analysis of cell-surface binding to human CD138 was performed on 9 representative humanized anti-CD138 antibodies by FACS (FIG. 7). […] Two cell lines expressing moderate levels of CD138 were used to test binding; multiple myeloma cell line KMS-11 and bladder cancer line RT112/84. […] EC50s were calculated using four parameter fit curves (Table 20). The constructs were also tested against ARH-77 cells, which are CD138 negative lymphoblasts.
row,Binder,EC50
1,B1,1.64 nM
2,B2,1.2 nM
3,B3,0.94 nM
4,B4,0.83 nM
5,B5,1.36 nM
6,B6,1.81 nM
7,B7,1.09 nM
8,B8,0.97 nM
9,B9,1.3 nM

# Target: T2, Human CD138-Fc protein
# Test: ELISA, plate-coated human CD138-Fc
# Protocol: (§2) A CD138 binding ELISA was performed with 9 representative humanized antibodies to determine binding to portion of the linear CD138 peptide used for immunization (FIG. 7). […] Coated plates were incubated with various dilutions of each of the 9 representative antibodies overnight and binding was detected with a goat anti-human IgG (H+L)-HRP. EC50s were determined using four parameter fit curves (Table 21). An ELISA was also performed to detect binding to plate-coated human CD138-Fc protein (Table 21).
row,Binder,EC50
1,B1,0.535 nM
2,B2,0.197 nM
3,B3,0.225 nM
4,B4,0.433 nM
5,B5,0.969 nM
6,B6,0.405 nM
7,B7,0.879 nM
8,B8,0.762 nM
9,B9,0.855 nM

# Target: T2, Human CD138-Fc protein
# Test: summary table; repeats the EC50 (nM) of Table 21, unit not given
# Protocol: as §2
row,Binder,ELISA CD138 Fc binding
1,B1,0.535
2,B2,0.197
3,B3,0.225
4,B4,0.433
5,B5,0.969
6,B6,0.405
7,B7,0.879
8,B8,0.762
9,B9,0.855

# Target: T1, Human syndecan-1 (CD138) on the cell …
# Test: FACS on RT-112 cells, four parameter fit
# Protocol: as §1
row,Binder,EC50
1,B1,2.09 nM
2,B2,2.2 nM
3,B3,1.93 nM
4,B4,1.39 nM
5,B5,2.13 nM
6,B6,2.46 nM
7,B7,1.88 nM
8,B8,2.73 nM
9,B9,2.44 nM

# Target: T3, hCD138 peptide AGEGPKEGEAVVLP
# Test: ELISA, plate-coated hCD138 peptide
# Protocol: as §2
row,Binder,EC50
1,B1,0.981 nM
2,B2,0.33 nM
3,B3,0.413 nM
4,B4,0.744 nM
5,B5,1.28 nM
6,B6,0.726 nM
7,B7,1.54 nM
8,B8,1.31 nM
9,B9,1.65 nM

# Target: T4, Mouse CD138 (ELISA binding assay, data …)
# Test: ELISA binding assay
row,Binder,binding result
1,B10,no binding

# Target: T5, Mouse CD138 His
# Test: SPR, mouse CD138 His immobilized
# Protocol: (§3) Murine IgGs were purified from the hybridoma supernatants and the IgGs were subject to SPR (surface plasmon resonance) for kinetic binding measurements. Human or mouse CD138 His was immobilized on a GLM chip at […] on a BioRad Proteon. […] KDs were measured using bivalent analyte fit.
row,Binder,binding result
1,B11,no binding (tested: 167 nM)
2,B12,no binding (tested: 167 nM)

# Target: T1, Human syndecan-1 (CD138) on the cell …
# Test: summary table; repeats the EC50 (nM) of Table 20, unit not given
# Protocol: as §1
row,Binder,FACS binding (KMS11)
1,B1,1.64
2,B2,1.2
3,B3,0.94
4,B4,0.83
5,B5,1.36
6,B6,1.81
7,B7,1.09
8,B8,0.97
9,B9,1.3

# Target: T6, Human CD138 His
# Test: SPR, summary table
# Protocol: as §3
row,Binder,Kd
1,B11,9 nM
2,B10,5 nM
3,B12,92 nM

# Target: T6, Human CD138 His
# Test: SPR (BioRad Proteon), CD138 His immobilized, bivalent analyte fit
# Protocol: as §3
Binder,Kd,koff,kon
B11,8.66 nM and 8.6 nM,0.033 s⁻¹,3.81e+06 M⁻¹ s⁻¹
B10,5.32 nM and 5.3 nM,0.00127 s⁻¹,238000 M⁻¹ s⁻¹
B12,91.6 nM,0.0117 s⁻¹,128000 M⁻¹ s⁻¹

# Target: T7, hCD138 (ELISA of Table 29)
# Test: hCD138 ELISA
row,Binder,EC50
1,B2,0.56 nM
2,B13,0.55 nM

# — US20220249679A1 (MITSUBISHI TANABE PHARMA, published 2022)
